Measurements taken from patent US6428967.

Legend:
[1] = target: wild type human LDL receptor on CHO cells (human) (UniProt P01130); experiment: cell-based or functional assay
[2] = target: wild type human LDL receptor on CHO cells (human) (UniProt P01130); experiment: 125I-LDL surface binding on CHO cells expressing the wild type human LDL receptor, with or without Dab1

Chain of wild type human LDL receptor on CHO cells (human) (P01130 22-860): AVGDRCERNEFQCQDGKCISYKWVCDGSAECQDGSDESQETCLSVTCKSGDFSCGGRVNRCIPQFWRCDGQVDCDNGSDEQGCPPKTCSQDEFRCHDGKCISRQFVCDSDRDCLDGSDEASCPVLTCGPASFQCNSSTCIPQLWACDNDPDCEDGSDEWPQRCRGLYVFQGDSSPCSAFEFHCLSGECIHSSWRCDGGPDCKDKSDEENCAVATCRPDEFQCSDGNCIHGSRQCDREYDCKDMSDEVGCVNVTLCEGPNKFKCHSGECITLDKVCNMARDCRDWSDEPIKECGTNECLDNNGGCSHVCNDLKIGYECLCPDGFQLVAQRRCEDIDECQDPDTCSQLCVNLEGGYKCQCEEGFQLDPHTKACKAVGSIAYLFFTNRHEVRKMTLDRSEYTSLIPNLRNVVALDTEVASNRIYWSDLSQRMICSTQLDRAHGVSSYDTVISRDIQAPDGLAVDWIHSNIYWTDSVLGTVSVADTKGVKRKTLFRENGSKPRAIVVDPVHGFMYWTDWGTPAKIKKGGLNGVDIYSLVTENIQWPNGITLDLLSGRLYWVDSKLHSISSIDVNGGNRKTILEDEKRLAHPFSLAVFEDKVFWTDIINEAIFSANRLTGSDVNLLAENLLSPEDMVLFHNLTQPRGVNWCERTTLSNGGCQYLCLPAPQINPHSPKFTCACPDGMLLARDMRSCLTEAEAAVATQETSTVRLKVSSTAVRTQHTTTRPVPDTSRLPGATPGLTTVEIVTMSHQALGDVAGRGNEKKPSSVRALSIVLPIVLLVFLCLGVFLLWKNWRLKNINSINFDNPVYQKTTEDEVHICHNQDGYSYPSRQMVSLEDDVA

LDL bound on the cell surface (125I labeled human LDL) [1] | fold of LDL bound on the cell surface, cells with Dab1 against cells without Dab1 [2] | Substance
2 times | – | Dab1 expressed in CHO cells from pcDNA3.1/ZEO DAB555 (from UniProt P97318 1-555)
– | 2 times | 125I labeled human LDL, P04114 28-4563
